Experimental data reported in PMC4663120.

Molecular target: FhuA ΔC/Δ5L (E. coli) (UniProt P06971)
Assay: single-channel electrical recording on planar lipid bilayer

## nucleocapsid protein 7 (NCp7) (natural protein)
  duration of transient current blockades: < 1 ms
